The text below walks through data of article PMC6608630, “The structural characterization of a glucosylglycerate hydrolase provides insights into the molecular mechanism of mycobacterial recovery from nitrogen starvation” (IUCrJ, 2019).

Substrate in data set [1]: O=C(O)[C@@H](CO)O[C@H]1O[C@H](CO)[C@@H](O)[C@H](O)[C@H]1O
In words: released glucose by glucose oxidase assay; allosteric sigmoidal fit. The following applies: 20 mM sodium phosphate pH 6.0, 100 mM KCl, 5 mM MgCl2, 50 °C, Hill h 1.77, tag-less enzyme. The class given is biochemical, Mycolicibacterium hassiacum. From the text:
released glucose by glucose oxidase assay; allosteric sigmoidal fit on MhGgH (M. hassiacum glucosylglycerate hydrolase)

Substrate in data set [2]: O=C(O)[C@@H](CO)O[C@H]1O[C@H](CO)[C@@H](O)[C@H](O)[C@@H]1O
The data set is described as follows: released mannose by K-MANGL assay kit; allosteric sigmoidal fit. It counts as biochemical, Mycolicibacterium hassiacum. Particulars: 20 mM sodium phosphate pH 6.0, 100 mM KCl, 5 mM MgCl2, 50 °C, Hill h 1.29, tag-less enzyme, rough estimation, incomplete kinetic curve. From the text:
released mannose by K-MANGL assay kit; allosteric sigmoidal fit on MhGgH (M. hassiacum glucosylglycerate hydrolase)

B1: MhGgH (M. hassiacum glucosylglycerate hydrolase) (Mycolicibacterium hassiacum DSM 44199) (protein)
chain: MPHDPSFTPTQLAARAAYLLRGNDLGTMTTAAPLLYPHMWSWDAAFVAIGLAPLSVERAVVELDTLLSAQWRNGMIPHIVFANGVDGYFPGPARWATATLADNAPRNRLTSGITQPPVHAIAVQRILEHARTRGRSTRAVAEAFLDRRWGDLMRWHRWLAECRDRNERGRITLYHGWESGMDNSPRWDSAYANVVPGKLPEYQRADNVIITDPSQRPSDGEYDRYLWLLEEMKAVRYDDERLPSVMSFQVEDVFFSAIFSVACQVLAEIGEDYKRPHADVKDLYLWAERFRAGVVETTDQRTGAARDFDVLAEKWLVTETAAQFAPLLCGGLPHDRERALLKLLEGPRFCGHPDLKYGLIPSTSPVSRDFRPREYWRGPVWPVLTWLFSWCFARRGWAERARLLRQEGLRQASDGSFAEYYEPFTGEPLGSMQQSWTAAAVLDWLG
notes: full-length from pETM11-MhGgH, N-terminal His tag removed with TEV protease leaving Gly-Ala dipeptide; E. coli BL21(DE3); homotetramer; last residue Gly446
As a reminder, the Vmax is the rate approached at saturating substrate. On to B1, for which the K0.5 in data set [1] is 9.36 ± 0.69 mM; in data set [2], 84.18 ± 30.27 mM. The Vmax in data set [1] was 3.6 µmol/min/mg; in data set [2], 3.09 µmol/min/mg.
